The values below come from US20190127480A1 (Regeneron, published 2019).

The target in experiment [1] is T1, human CD3 on CD3-expressing cells (Jurkat, human T cells) (human, UniProt P07766 23-207; P04234 22-171).
T1 construct: On cells CD3 stands within the T cell receptor complex (also gamma and zeta chains); also called human CD3 expressing Jurkat cells
As to the kind of experiment: FACS on Jurkat cells. The procedure:
(§1) Briefly, 2×10⁵ cells/well of human CD3-expressing Jurkat, cynomolgus T, or human PSMA-specific expressing cells were incubated with a serial dilution of bispecific antibodies for 30 min at 4° C. After incubation, cells were washed and a goat F(ab′)₂ anti-human Fcγ PE labeled secondary (Jackson Immunolabs) was added to the cells for an additional 30 min. Next, cells were washed, re-suspended in cold PBS+1% BSA and analyzed via flow cytometry on a BD FACS Canto II.
(§2) For FACS analysis, cells were gated by forward scatter height vs. forward scatter area for single events selection, followed by side and forward scatters. The EC₅₀ for cell binding titration was determined using Prism software. Values were calculated using 4-parameter non-linear regression analysis.

Experiment [2] deals with T2, human PSMA on PSMA-expressing cells (human, UniProt Q04609 1-750). As to the kind of experiment: cell-based or functional assay.
The target in experiment [3] is T1, human CD3 on CD3-expressing cells …. As to the kind of experiment: cell-based or functional assay.
Experiment [4] has as its target T3, cynomolgus CD3 on cynomolgus T cells (cynomolgus, UniProt Q95LI5 22-198; Q95LI8 22-171).
T3 construct: whole, on cells; also called Cyno T-cells; monkey T-cells
As to the kind of experiment: FACS on cynomolgus T cells. How it is done:
as §1, §2

Experiment [5] deals with T2, human PSMA on PSMA-expressing cells. As to the kind of experiment: FACS on B16F10.9/PSMA cells. How it is done:
as §1, §2

In experiment [6] the target is T4, soluble heterodimeric hCD3ε/δ.mFc protein (human).
T4 construct: also called soluble human CD3; soluble heterodimeric CD3 protein
T4 chain 1: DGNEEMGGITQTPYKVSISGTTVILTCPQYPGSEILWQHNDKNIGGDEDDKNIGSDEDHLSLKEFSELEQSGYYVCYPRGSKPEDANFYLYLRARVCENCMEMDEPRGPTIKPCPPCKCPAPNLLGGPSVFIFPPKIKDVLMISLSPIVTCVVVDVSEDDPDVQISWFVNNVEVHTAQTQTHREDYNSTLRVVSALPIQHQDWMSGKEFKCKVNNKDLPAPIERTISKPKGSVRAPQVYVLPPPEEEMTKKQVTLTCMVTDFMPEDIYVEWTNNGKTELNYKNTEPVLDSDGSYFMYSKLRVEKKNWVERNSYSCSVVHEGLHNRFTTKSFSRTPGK
T4 chain 2: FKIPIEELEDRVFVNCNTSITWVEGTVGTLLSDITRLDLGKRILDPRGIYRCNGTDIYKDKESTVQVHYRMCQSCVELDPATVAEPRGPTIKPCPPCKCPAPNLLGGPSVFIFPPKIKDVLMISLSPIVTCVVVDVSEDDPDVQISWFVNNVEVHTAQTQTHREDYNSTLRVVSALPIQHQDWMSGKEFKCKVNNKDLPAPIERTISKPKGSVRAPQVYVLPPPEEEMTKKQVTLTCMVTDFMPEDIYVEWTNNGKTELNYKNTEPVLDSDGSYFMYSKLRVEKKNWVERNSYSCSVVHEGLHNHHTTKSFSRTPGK
As to the kind of experiment: SPR MASS-1, 37 C, antigen-capture (hCD3ε/δ.mFc captured), antibody injected. How it is done: Measurements were conducted on a Sierra Sensors MASS-1 instrument.
In the antigen-capture format, the MASS-1 high-density amine sensor surface was derivatized with a goat anti-mouse IgG2a polyclonal antibody (Southern Biotech). Soluble heterodimeric CD3 protein was captured and the respective antibodies were injected over the captured antigen.
Kinetic association (kₐ) and dissociation (kd) rate constants were determined by processing and fitting the data to a 1:1 binding model using MASS-1 AnalyserR2 curve fitting software. Binding dissociation equilibrium constants (KD) and dissociative half-lives (t_{1/2}) were calculated from the kinetic rate constants as: KD (M)=kd/kₐ; and t_{1/2} (min)=(ln 2/(60*kd).

In experiment [7] the target is T5, human CD3 expressed on cells (Jurkat cells; human T-cells of PBMC) (human, UniProt P09693 23-182; P20963 22-164). As to the kind of experiment: cell-based or functional assay.
For experiment [8], the target named is cynomolgus monkey CD3 expressed on monkey T-cells (PBMCs) (cynomolgus monkey, UniProt Q95LI5 22-198; Q95LI8 22-171). As to the kind of experiment: cell-based or functional assay.
Experiment [9] addresses T5, human CD3 expressed on cells (Jurkat …). As to the kind of experiment: cell-based or functional assay. The source holds these as a separate data set.
For experiment [10] the target is unchanged. As to the kind of experiment: FACS titration on Jurkat cells (CD3+ human T-cell line). The essentials: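 Jurkat cells (2×10⁵/well) incubated 30 min on ice with serially diluted antibodies, then 30 min with secondary antibody. Viable cells gated by forward/side scatter in flow cytometry; EC₅₀ from 4-parameter non-linear regression of binding titration.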

T3 sequence (Q95LI5 22-198, form in doubt, chain 1 of 2): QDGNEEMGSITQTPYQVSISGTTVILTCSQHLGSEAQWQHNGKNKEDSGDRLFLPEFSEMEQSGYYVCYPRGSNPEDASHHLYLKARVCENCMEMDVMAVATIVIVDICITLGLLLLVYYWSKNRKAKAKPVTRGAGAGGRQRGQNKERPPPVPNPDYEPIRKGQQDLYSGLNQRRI
T3 sequence (Q95LI8 22-171, form in doubt, chain 2 of 2): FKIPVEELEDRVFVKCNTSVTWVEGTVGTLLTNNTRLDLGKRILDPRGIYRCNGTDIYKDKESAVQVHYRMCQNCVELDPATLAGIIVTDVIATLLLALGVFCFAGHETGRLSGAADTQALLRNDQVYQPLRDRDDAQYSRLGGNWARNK
T2 sequence (Q04609 whole entry): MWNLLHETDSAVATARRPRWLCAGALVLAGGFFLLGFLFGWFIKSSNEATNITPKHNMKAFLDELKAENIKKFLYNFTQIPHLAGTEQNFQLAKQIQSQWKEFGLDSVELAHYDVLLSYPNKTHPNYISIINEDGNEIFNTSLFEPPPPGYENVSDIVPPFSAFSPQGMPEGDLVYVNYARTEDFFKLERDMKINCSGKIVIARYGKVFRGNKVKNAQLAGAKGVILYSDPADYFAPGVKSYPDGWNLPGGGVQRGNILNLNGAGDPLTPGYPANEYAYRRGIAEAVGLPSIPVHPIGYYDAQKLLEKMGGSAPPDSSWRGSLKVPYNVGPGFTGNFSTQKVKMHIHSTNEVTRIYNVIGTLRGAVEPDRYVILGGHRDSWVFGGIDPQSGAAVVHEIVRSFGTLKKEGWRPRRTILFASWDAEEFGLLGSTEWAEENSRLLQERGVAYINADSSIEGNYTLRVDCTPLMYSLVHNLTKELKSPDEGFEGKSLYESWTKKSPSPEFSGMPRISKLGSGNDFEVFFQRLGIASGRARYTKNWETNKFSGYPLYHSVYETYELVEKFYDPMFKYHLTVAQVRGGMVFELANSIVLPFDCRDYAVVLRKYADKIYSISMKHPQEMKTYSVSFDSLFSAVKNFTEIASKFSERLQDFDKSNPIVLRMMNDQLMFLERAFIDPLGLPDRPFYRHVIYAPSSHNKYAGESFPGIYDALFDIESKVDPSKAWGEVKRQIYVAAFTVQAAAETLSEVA
T5 sequence (chain, as listed by the source, chain 1 of 4): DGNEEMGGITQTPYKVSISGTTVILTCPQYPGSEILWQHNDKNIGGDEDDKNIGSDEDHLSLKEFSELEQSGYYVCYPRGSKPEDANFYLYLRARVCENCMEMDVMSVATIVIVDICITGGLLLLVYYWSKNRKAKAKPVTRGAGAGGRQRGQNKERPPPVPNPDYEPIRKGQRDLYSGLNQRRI
T5 sequence (chain, as listed by the source, chain 2 of 4): as the sequence (Q95LI8 22-171, form in doubt, chain 2 of 2) above, with V5I, K15N, V20I, T32S, N33D, N34I, A64T, N74S, L83V, R141H counted along it
T5 sequence (P09693 23-182, chain 3 of 4): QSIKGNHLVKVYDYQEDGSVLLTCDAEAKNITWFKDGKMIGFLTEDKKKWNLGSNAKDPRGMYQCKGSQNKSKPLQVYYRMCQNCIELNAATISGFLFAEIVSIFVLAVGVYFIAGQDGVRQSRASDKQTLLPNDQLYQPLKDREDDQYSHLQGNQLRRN
T5 sequence (P20963 22-164, chain 4 of 4): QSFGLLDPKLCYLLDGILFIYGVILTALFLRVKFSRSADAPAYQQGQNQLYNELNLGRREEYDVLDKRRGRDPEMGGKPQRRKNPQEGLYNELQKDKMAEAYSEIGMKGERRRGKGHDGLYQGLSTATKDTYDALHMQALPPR
T1 sequence (P07766 23-207 limits assumed, chain 1 of 2): as the sequence (chain, as listed by the source, chain 1 of 4) above
T1 sequence (P04234 22-171 limits assumed, chain 2 of 2): as the sequence (Q95LI8 22-171, form in doubt, chain 2 of 2) above, with V5I, K15N, V20I, T32S, N33D, N34I, A64T, N74S, L83V, R141H counted along it
Sequence of cynomolgus monkey CD3 expressed on monkey T-cells (PBMCs) (Q95LI5 22-198, chain 1 of 2): as the sequence (Q95LI5 22-198, form in doubt, chain 1 of 2) above
Sequence of cynomolgus monkey CD3 expressed on monkey T-cells (PBMCs) (Q95LI8 22-171, chain 2 of 2): as the sequence (Q95LI8 22-171, form in doubt, chain 2 of 2) above

B1: BSPSMA/CD3-003 (bispecific antibody, IgG4, V domains shown)
VH 1: QVQLVESGGGVVQPGRSLRLSCAASGFTFSSYGMHWVRQAPGKGLEWVAVISYAGNNKYYADSVKGRFTVSRDNSKKTLYLQMNSLRSEDTAVYYCAKDSYYDFLTDPDVLDIWGQGTMVTVSS
VH 2: EVQLVESGGGLVQPGRSLRLSCAASGFTFDDYSMHWVRQAPGKGLEWVSGISWNSGSKGYADSVKGRFTISRDNAKNSLYLQMNSLRAEDTALYYCAKYGSGYGKFYHYGLDVWGQGTTVTVSS
VL: DIQMTQSPSSLSASVGDSVTITCRASQSINNYLNWYQQKPGKAPKLLIYTASSLLSGVPSRFSGSGSGTDFTLTISGLHPEDFATYFCQQSFSTPPITFGQGTRLDIK
notes: modified (chimeric) IgG4 Fc domain; also called PSMA-VH-11810 x CD3-VH-G
For the molecule B1, the concentration giving a half-maximal response (EC50) in [1] came to 16.5 nM; in experiment [4], 14.2 nM; in experiment [5] it was 2.26 nM. For the same molecule, the “C4-2 Cell depletion EC50” value in experiment [2] came out at 0.0103 nM. In addition, the “TrampC2.PSMA Cell depletion EC50” value in experiment [2] was determined as 0.00643 nM. For the same molecule, the “T cell activation EC50” value in [3] worked out at 0.00123 nM.

B2: BSPSMA/CD3-900 (bispecific antibody, IgG4, V domains shown)
VH 1: QVQLVESGGGVVQPGRSLRLSCAASGFTFSSYGMHWVRQAPGKGLEWVAVISYAGNNKYYADSVKGRFTVSRDNSKKTLYLQMNSLRSEDTAVYYCAKDSYYDFLTDPDVLDIWGQGTMVTVSS
VH 2: EVQLVESGGGLVQPGRSLRLSCAASGFTFDDYSMHWVRQAPGKGLEWVSGISWNSGSKGYADSVKGRFTISRDNAKNSLYLQMNSLRAEDTALYYCAKDGSGYGKFYHYGLDVWGQGTTVTVSS
VL: DIQMTQSPSSLSASVGDSVTITCRASQSINNYLNWYQQKPGKAPKLLIYTASSLLSGVPSRFSGSGSGTDFTLTISGLHPEDFATYFCQQSFSTPPITFGQGTRLDIK
notes: modified (chimeric) IgG4 Fc domain; also called PSMA-VH-11810 x CD3-VH-G9
B2 returned an EC50 in experiment [1] of 274 nM. The “TrampC2.PSMA Cell depletion EC50” value in experiment [2] was 0.0035 nM. Further, the “T cell activation EC50” value in experiment [3] stood at 0.00112 nM. This molecule also showed a 50% effective concentration (EC50) in experiment [5] of 1.43 nM. In [6], the Kd amounted to 113 nM, the “T½” value stood at 2.3 min, the off-rate (koff) amounted to 0.00495 s⁻¹ and the kon is 43800 M⁻¹ s⁻¹.

B3: BSPSMA/CD3-005 (bispecific antibody, IgG4, V domains shown)
VH 1: QVQLVESGGGVVQPGRSLRLSCAASGFTFSSYGMHWVRQAPGKGLEWVAVISYAGNNKYYADSVKGRFTVSRDNSKKTLYLQMNSLRSEDTAVYYCAKDSYYDFLTDPDVLDIWGQGTMVTVSS
VH 2: EVQLVESGGGLVQPGRSLRLSCAASGFTFDDYSMHWVRQAPGKGLEWVSGISWNSGSIGYADSVKGRFTISRDNAKNSLYLQMNSLRAEDTALYYCAKYGSGYGKFYYYGMDVWGQGTTVTVSS
VL: DIQMTQSPSSLSASVGDSVTITCRASQSINNYLNWYQQKPGKAPKLLIYTASSLLSGVPSRFSGSGSGTDFTLTISGLHPEDFATYFCQQSFSTPPITFGQGTRLDIK
notes: modified (chimeric) IgG4 Fc domain; also called PSMA-VH-11810 x CD3-VH-G20
Take B3: the response in [1] was half-maximal at 210 nM (EC50). Besides, in experiment [2], the “22RV1 Cell depletion EC50” value is 0.00832 nM and the “C4-2 Cell depletion EC50” value is 0.0139 nM. In addition, in experiment [3], the “T cell activation EC50” value amounted to 0.00611 nM. The molecule further displayed an EC50 in experiment [4] of 6140 nM. The molecule further had an EC50 in experiment [5] of 2.09 nM. Besides, in [6], the dissociation constant (Kd) was determined as 334 nM, the “T½” value turned out to be 2 min, the koff came to 0.00577 s⁻¹ and the association rate constant (kon) was determined as 17300 M⁻¹ s⁻¹.

B4: BSPSMA/CD3-1000 (bispecific antibody, IgG4, V domains shown)
VH 1: QVQLVESGGGVVQPGRSLRLSCAASGFTFSSYGMHWVRQAPGKGLEWVAVISYAGNNKYYADSVKGRFTVSRDNSKKTLYLQMNSLRSEDTAVYYCAKDSYYDFLTDPDVLDIWGQGTMVTVSS
VH 2: EVQLVESGGGLVQPGRSLRLSCAASGFTFDDYSMHWVRQAPGKGLEWVSGISWNSGSKGYADSVKGRFTISRDNAKNSLYLQMNSLRAEDTALYYCAKYGSGYGKFYYYGLDVWGQGTTVTVSS
VL: DIQMTQSPSSLSASVGDSVTITCRASQSINNYLNWYQQKPGKAPKLLIYTASSLLSGVPSRFSGSGSGTDFTLTISGLHPEDFATYFCQQSFSTPPITFGQGTRLDIK
notes: modified (chimeric) IgG4 Fc domain; also called PSMA-VH-11810 x CD3-VH-G10
In experiment [1], B4 gave an EC50 of 277 nM. In addition, the “TrampC2.PSMA Cell depletion EC50” value in experiment [2] is 0.00597 nM. Also, the “T cell activation EC50” value in experiment [3] stood at 0.00128 nM. Besides, the EC50 in [5] stood at 1.19 nM. Moreover, in experiment [6], binding was put at a Kd of 185 nM, the “T½” value was 1.8 min, the koff turned out to be 0.00637 s⁻¹ and the kon worked out at 34400 M⁻¹ s⁻¹.

B5: BSPSMA/CD3-1400 (bispecific antibody, IgG4, V domains shown)
VH 1: QVQLVESGGGVVQPGRSLRLSCAASGFTFSSYGMHWVRQAPGKGLEWVAVISYAGNNKYYADSVKGRFTVSRDNSKKTLYLQMNSLRSEDTAVYYCAKDSYYDFLTDPDVLDIWGQGTMVTVSS
VH 2: EVQLVESGGGLVQPGRSLRLSCAASGFTFDDYSMHWVRQAPGKGLEWVSGISWNSGSIGYADSVKGRFTISRDNAKNSLYLQMNSLRAEDTALYYCAKYGSGYGKFYHYGMDVWGQGTTVTVSS
VL: DIQMTQSPSSLSASVGDSVTITCRASQSINNYLNWYQQKPGKAPKLLIYTASSLLSGVPSRFSGSGSGTDFTLTISGLHPEDFATYFCQQSFSTPPITFGQGTRLDIK
notes: modified (chimeric) IgG4 Fc domain; also called PSMA-VH-11810 x CD3-VH-G14
Take B5: in [1], the midpoint of the response, the EC50, lay at 31.9 nM. The molecule further came in with an EC50 in experiment [4] of 170 nM. Also, in experiment [5], a half-maximal response (EC50) required 1.3 nM. Further, in experiment [6], the Kd was 53.3 nM, the “T½” value was found to be 3.5 min, the koff stood at 0.00331 s⁻¹ and the kon was determined as 62100 M⁻¹ s⁻¹.

B6: H1H5788P (antibody, V domains shown)
VH: EVQLVESGGGLVQPGRSLRLSCAASGFTFDDYTMHWVRQAPGKGLEWVSGISWNSGSIGYADSVKGRFTISRDNAKNSLYLQMNSLRAEDTALFYCAKDQSGYGHYYYGMDVWGQGTTVTVSS
VL: EIVMTQSPATLSVSPGERATLSCRASQSVSSNLAWYQQKPGQAPRLLIYGASTRATDIPARFSGSGSGTEFTLTISSLQSEDFAVYHCQQYNNWPLTFGGGTKVEIK
notes: H1H: human IgG1 Fc
Take B6: in experiment [7], the “EC50 [M] hPBMC Proliferation” value is 4.62e-12 M. Besides, the “EC50 [M] mfPBMC Proliferation” value in experiment [8] amounted to 2.01e-12 M. The “U937 Cytotoxicity Human T-cells” value in [9] was 15.4 pM. A half-maximal effect in experiment [10] (EC50) was put at 3.53 nM.

B7: H1H5781P (antibody, human IgG1, V domains shown)
VH: EVQLVESGGGLVQPGRSLRLSCAASGFTFDDFTMHWVRQAPGKGLEWVSDISWNSGSIDYADSVKGRFTISRDNARNSLFLQMSSLRTEDTASYYCIKDKSGYGSYNYGLDVWGQGTTVTVSS
VL: EIVLTQSPGTLSLSPGDRATLSCRASQSVSSIYLAWYQQKPGQAPRLLIHGASTRATGIPDRFSGSGSGTDFTLTISRLEPEDFALYYCHQRVSSPYTFGQGTKLEIK
notes: H1H: human IgG1 Fc
With B7, the “EC50 [M] hPBMC Proliferation” value in experiment [7] was determined as 6.08e-12 M. The “EC50 [M] mfPBMC Proliferation” value in experiment [8] is 7.92e-13 M. In [9], the “U937 Cytotoxicity Human T-cells” value turned out to be 1.83 pM. For the same molecule, in [10], a half-maximal effect (EC50) was put at 1.23 nM.
